The results in this text go back to the DeepSol protein solubility set.

The series in a line: soluble on expression in E. coli; label from the status in PepcDB or PDB records.
Turning to “KQLLFMHSSASVESLERPYLETMPGQYAAEITLFEWLDFLLERGGVKRALKAIEYYETVGWVSADAAERLQGHVRGFSGPADDDSHSDLEMSDHVLSLVYIARLSSMQ”, the “soluble on expression in E. coli” value is given as “not soluble”.

Consider “GKKDTQSITLEELAKIIKKCKHVVALTGSGTSAESNIPSFRGSSNSIWSKYDPRIYGTIWGFWKYPEKIWEVIRDISSDYEIEINNGHVALSTLESLGYLKSVVTQNVDGLHEASGNTKVISLHGNVFEAVCCTCNKIVKLNKIMLQKTSHFMHQLPPECPCGGIFKPNIILFGEVVSSDLLKEAEEEIAKCDLLLVIGTSSTVSTATNLCHFACKKKKKIVEINISKTYITNKMSDYHVCAKFSELTKVANILKGSSEKNKKIM”, for which the “soluble on expression in E. coli” value is “soluble”.

Turning to “MGKLNLYQMKKVEIIVRGEDLDFVLDLLEKAGVKGYTIIHNLSGKGSHGFHEGHLLFNEEDVLDMVISVMPEEKVEAILEGLTPFFNKHSGVVFVSDVQVSRLEKFKNG”, the “soluble on expression in E. coli” value is reported as “not soluble”.

In the case of “MNIIDELEWRGAVNQQTDEEGLRKLVEEKKISLYCGVDPTGDSMHIGHLIPFMMMKRFQLAGHHPVILIGGATGTIGDPSGRQSERQLQTLEVVQHNVDALTAQMKKLFDFGGNSEVKMVNNYDWTHEINIIEFLRDYGKNFSINSMLAKDIVASRLDTGISFTEFTYQILQAMDFHHLYTKEDVQLQIGGSDQWGNITSGLDLIRKLEGHEAKVFGLTIPLLLKSDGTKFGKSAGGAVWLDPEKTTPFEFYQFWVNTDDRDVVKYLKYFTFLTKERIDELAVKVETEPHKREAQKVLAEEMTKFVHGEEALLQAVKITAALFSGDIKSLTADEIEQGFKEMPTFQSSKETKNIVEWLVDLGIEPSRRQAREDINNGAISMNGEKVTDVGTDVTVENSFDGRFIIIRKGKKNYSLVKLG”, the “soluble on expression in E. coli” value is on record as “soluble”.

On to “MSLQAAKEVCLWPLHEREPDTTWSRGPLVLLGDAGHPMRPHMAQGAAMAIEDAAVLVRCLRAYGAAAGAAYDHYQQTRAERVAQVQKVSSENSWMRTPTDPEWVFSYDALLAPEGHHHHHH”, for which the “soluble on expression in E. coli” value is “not soluble”.

With “MGKFSNQKKNRVKNKVAVTVKKAQRMKADAKNAKKDGEVDVEMKEEVVRVRGLAVSSLKKLASGELQNVPKVNEKKIIRKTELPVRENKKILDAPTGKRGTTAQYITKKKAKKMYKKMTHDARDKYRKIQAELAGDGEDDEEGEAEVMEQ”, the “soluble on expression in E. coli” value is “not soluble”.

“MHFRMKVLENSSKHNTPKKQKTFQHYLPAGDRCYSCIHCRANLAAHAELISKSFQGSQGKAYLFNAVVNVGCGPAEERVLLTGLHAVADIYCEICKTTLGWKYEHAFESSQKYKEGKFIIELAHMVKDNGWDEQNDS”: the “soluble on expression in E. coli” value was “not soluble”.

As to “MGSDKIHHHHHHMIIQRVVLNSRPGKNGNPVAENFRVEEFSLLDALNEGQVQVRTLYLSVDPYMRCKMNEDTGTDYLAPWQLAQVADGGGIGIVEESKHQKLAKGDFVTSFYWPWQTKAILDGNGLEKVDPQLVDGHLSYFLGAIGMPGLTSLIGVQEKGHISAGSNQTMVVSGAAGACGSLAGQIGHLLGCSRVVGICGTQEKCLFLTSELGFDAAVNYKTGNVAEQLREACPGGVDVYFDNVGGDISNTVISQMNENSHIILCGQISQYNKDVPYPPPLPPAVEAIRKERNITRERFTVLNYKDKFEPGILQLSQWFKEGKLKVKETVAKGLENMGVAFQSMMTGGNVGKQIVCISEDSSL”, the “soluble on expression in E. coli” value was “soluble”.

With “MSLINEATLAESIRRLRQGERATLAQAMTLVESRHPRHQALSTQLLDAIMPYCGNTLRLGVTGTPGAGKSTFLEAFGMLLIREGLKVAVIAVDPSSPVTGGSILGDKTRMNDLARAEAAFIRPVPSSGHLGGASQRARELMLLCEAAGYDVVIVETVGVGQSETEVARMVDCFISLQIAGGGDDLQGIKKGLMEVADLIVINKDDGDNHTNVAIARHMYESALHILRRKYDEWQPRVLTCSALEKRGIDEIWHAIIDFKTALTASGRLQQVRQQQSVEWLRKQTEEEVLNHLFANEDFDRYYRQTLLAVKNNTLSPRTGLRQLSEFIQTQYFDEGHHHHHH”, the “soluble on expression in E. coli” value is reported as “soluble”.

Turning to “PEWDEYIAEQIESGALGEDEGAEFLERWMVQKQHPLDINTLTREDLEQFPFLNEFQIRRFLLYRHAHPEGFDSIWVLSEIAGWDRRTCLLLWPMLTVQKRSESAAASFREILSYARHDVSVHTDAILQQQEGYRPDSRHPYRGDPWGGGLRWSYAMGNRFSLGLTASKDRGEPAFDKRRKGFDSYSAHFFMEGKGAVRAVALGDYRIG”, the “soluble on expression in E. coli” value is listed as “not soluble”.
